The text below walks through data of paper doi:10.1101/2025.03.19.644215 (bioRxiv, 2025).

This series deals with the molecule itself. Put plainly: cryo-EM structure; Dmc1 2.5 uM with 0.125 uM 96-mer ssDNA in HR buffer with 1.5 mM CaCl2 and 5 mM ADP, 30°C 5 min, then 8 mM CHAPSO; helical filament in the ADP-bound state (interdigitated filaments masked to a single filament); filament formation required the ssDNA.

B1: S. cerevisiae Dmc1 (natural protein)
chain: MSVTGTEIDSDTAKNILSVDELQNYGINASDLQKLKSGGIYTVNTVLSTTRRHLCKIKGLSEVKVEKIKEAAGKIIQVGFIPATVQLDIRQRVYSLSTGSKQLDSILGGGIMTMSITEVFGEFRCGKTQMSHTLCVTTQLPREMGGGEGKVAYIDTEGTFRPERIKQIAEGYELDPESCLANVSYARALNSEHQMELVEQLGEELSSGDYRLIVVDSIMANFRVDYCGRGELSERQQKLNQHLFKLNRLAEEFNVAVFLTNQVQSDPGASALFASADGRKPIGGHVLAHASATRILLRKGRGDERVAKLQDSPDMPEKECVYVIGEKGITDSSD
notes: Dmc1 meiotic recombinase, Saccharomyces cerevisiae; expressed from a plasmid encoding 6XHisDmc1; Stood in the assay as a helical filament of many protomers, assembled with a 96-nt ssDNA, ADP, Mg2+ and Ca2+; no removal of the His tag is described; also called Dmc1-ADP; source: E. coli BL21 (DE3) Rosetta2, purified (Talon resin, heparin sepharose)
Regarding B1, the binding result is listed as “binds”.
